Source: PMC11045787, “Disordered clock protein interactions and charge blocks turn an hourglass into a persistent circadian oscillator” (Nature Communications, 2024)
Where no end group is shown, it is not given here.

Biological target: T1, FRQ-interacting RNA Helicase (FRH), a.a. 100-1106, with 6x His-tag (N. crassa, UniProt Q1K502 100-1106)
T1 construct: The preparation was only about 30% FRH; the other proteins were left in on purpose; also called FRHΔ100; E. coli expressed FRH; source: E. coli BL21 (DE3), Ni-NTA eluate, de-salted and buffer-exchanged to PBS (~30% FRH by Coomassie gel); not shown: His6, N-terminal, kept
T1 sequence (looked up): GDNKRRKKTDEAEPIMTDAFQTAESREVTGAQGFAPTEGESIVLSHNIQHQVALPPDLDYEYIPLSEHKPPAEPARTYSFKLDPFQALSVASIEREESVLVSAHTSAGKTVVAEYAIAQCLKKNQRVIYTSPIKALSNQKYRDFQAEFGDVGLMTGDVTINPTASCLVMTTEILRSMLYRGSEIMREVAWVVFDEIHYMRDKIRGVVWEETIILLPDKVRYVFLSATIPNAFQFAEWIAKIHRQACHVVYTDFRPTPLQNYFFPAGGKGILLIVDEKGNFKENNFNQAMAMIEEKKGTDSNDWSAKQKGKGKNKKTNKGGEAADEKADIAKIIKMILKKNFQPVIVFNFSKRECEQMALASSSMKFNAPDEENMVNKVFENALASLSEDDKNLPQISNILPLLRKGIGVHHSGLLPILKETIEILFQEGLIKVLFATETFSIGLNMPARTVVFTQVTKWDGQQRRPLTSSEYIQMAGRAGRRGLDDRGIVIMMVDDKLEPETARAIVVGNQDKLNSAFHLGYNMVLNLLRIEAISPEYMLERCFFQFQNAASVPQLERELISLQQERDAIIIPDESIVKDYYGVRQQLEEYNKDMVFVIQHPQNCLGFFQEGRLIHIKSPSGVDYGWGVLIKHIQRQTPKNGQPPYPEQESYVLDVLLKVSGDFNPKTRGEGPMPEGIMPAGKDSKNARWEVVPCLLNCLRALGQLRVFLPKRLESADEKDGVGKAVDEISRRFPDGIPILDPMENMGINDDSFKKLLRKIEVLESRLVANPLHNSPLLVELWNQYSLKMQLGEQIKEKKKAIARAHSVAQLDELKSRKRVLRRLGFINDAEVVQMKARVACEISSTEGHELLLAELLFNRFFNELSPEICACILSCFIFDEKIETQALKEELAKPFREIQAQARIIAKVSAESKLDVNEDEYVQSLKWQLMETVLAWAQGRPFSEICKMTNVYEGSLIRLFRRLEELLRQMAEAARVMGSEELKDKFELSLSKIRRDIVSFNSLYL
Assay: peptide or protein array; LOCATE Library II: rationally designed FRQ peptides (parents, scrambles, truncations, substitutions) spotted on slides; ~100 nM FRH in solution, room temperature, PBS pH 7.0; read with anti-His and chemiluminescence; FRH preparation ~30% pure
Conditions: both partners purified

B1: FRQ peptide MTDKEKKKLVVRRLE (near the FCD-1 region) (peptide)
peptide: Ac-MTDKEKKKLVVRRLE
notes: Made from C- to N-terminus on cellulose; printed as a peptide-cellulose stock; source: synthetic peptide (Fmoc, on cellulose disks, spotted on nitrocellulose-coated slides)
binding result: binds
